Columns and labels:
[1] = biological target: HLA-A*01:01 (Homo sapiens, UniProt P04439, A114D/A174V/A182V/D101N/D185E/E176A/E190D/L180R/Q94H/R68K/S129P/T187R/V100A/V91M/W191G); assay: MHC binding assay: UV-ligand exchange, ELISA of stabilized MHC complexes (peptide exchange yield); details: binding to HLA-A*01:01, UV-ligand exchange
How it was run: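 Peptide–MHC complexes were formed by UV-induced exchange of a photocleavable ligand for the test peptide. Exchange yield was measured by streptavidin-capture ELISA of 100-fold diluted complexes, detected with HRP anti-β2m at A450. Refolded HLA-A*02:01/MLA-001 monomers at 15-500 ng/ml served as standards.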

[2] = test system: CD8+ T cells; assay: In vitro T-cell priming assay with artificial antigen presenting cells loaded with peptide/MHC complexes and anti-CD28 antibody, pMHC multimer readout; format: cell-based, human; details: Table 10b; in vitro immunogenicity, peptide-specific multimer+ CD8+ T cells
Description: In order to obtain information regarding the immunogenicity of the TUMAPs of the present invention, the inventors performed investigations using an in vitro T-cell priming assay based on repeated stimulations of CD8+ T cells with artificial antigen presenting cells (aAPCs) loaded with peptide/MHC complexes and anti-CD28 antibody.
In order to perform in vitro stimulations by artificial antigen presenting cells loaded with peptide-MHC complex (pMHC) and anti-CD28 antibody, the inventors first isolated CD8+ T cells from fresh HLA-A*02 leukapheresis products via positive selection using CD8 microbeads (Miltenyi Biotec, Bergisch-Gladbach, Germany) of healthy donors obtained from the University clinics Mannheim, Germany, after informed consent.
PBMCs and isolated CD8+ lymphocytes were incubated in T-cell medium (TCM) until use consisting of RPMI-Glutamax (Invitrogen, Karlsruhe, Germany) supplemented with 10% heat inactivated human AB serum (PAN-Biotech, Aidenbach, Germany), 100 U/ml Penicillin/100 μg/ml Streptomycin (Cambrex, Cologne, Germany), 1 mM sodium pyruvate (CC Pro, Oberdorla, Germany), 20 μg/ml Gentamycin (Cambrex). 2.5 ng/ml IL-7 (PromoCell, Heidelberg, Germany) and 10 U/ml IL-2 (Novartis Pharma, Nurnberg, Germany) were also added to the TCM at this step.
Generation of pMHC/anti-CD28 coated beads, T-cell stimulations and readout was performed in a highly defined in vitro system using four different pMHC molecules per stimulation condition and 8 different pMHC molecules per readout condition.
The purified co-stimulatory mouse IgG2a anti human CD28 Ab 9.3 (Jung et al., 1987) was chemically biotinylated using Sulfo-N-hydroxysuccinimidobiotin as recommended by the manufacturer (Perbio, Bonn, Germany). Beads used were 5.6 μm diameter streptavidin coated polystyrene particles (Bangs Laboratories, Illinois, USA).
pMHC used for positive and negative control stimulations were A*0201/MLA-001 (peptide […] (SEQ ID NO. 433) from modified Melan-A/MART-1) and A*0201/DDX5-001 ([…] from DDX5, SEQ ID NO. 434), respectively.
800.000 beads/200 μI were coated in 96-well plates in the presence of 4×12.5 ng different biotin-pMHC, washed and 600 ng biotin anti-CD28 were added subsequently in a volume of 200 μI. Stimulations were initiated in 96-well plates by co-incubating 1×10^6 CD8+ T cells with 2×10^5 washed coated beads in 200 μI TCM supplemented with 5 ng/ml IL-12 (PromoCell) for 3 days at 37° C. Half of the medium was then exchanged by fresh TCM supplemented with 80 U/ml IL-2 and incubating was continued for 4 days at 37° C. This stimulation cycle was performed for a total of three times. For the pMHC multimer readout using 8 different pMHC molecules per condition, a two-dimensional combinatorial coding approach was used as previously described (Andersen et al., 2012) with minor modifications encompassing coupling to 5 different fluorochromes. Finally, multimeric analyses were performed by staining the cells with Live/dead near IR dye (Invitrogen, Karlsruhe, Germany), CD8-FITC antibody clone SK1 (BD, Heidelberg, Germany) and fluorescent pMHC multimers. For analysis, a BD LSRII SORP cytometer equipped with appropriate lasers and filters was used. Peptide specific cells were calculated as percentage of total CD8+ cells. Evaluation of multimeric analysis was done using the FlowJo software (Tree Star, Oregon, USA). In vitro priming of specific multimer+CD8+ lymphocytes was detected by comparing to negative control stimulations.

| Peptide exchange [1] | Substance | Wells positive [%] [2] |
| --- | --- | --- |
| ++++ (>75% = ++++) | 84 (ESEMIKFASYY; listed as Homo sapiens) [compound 84] | + (<20% = +) |
| ++++ (>75% = ++++) | 386 (NSALNPLLY; listed as Homo sapiens) [compound 386] | + (<20% = +) |
| +++ (>50 = +++) | 387 (LMEKEDYHSLY; listed as Homo sapiens) [compound 387] | + (<20% = +) |

From patent US12195506B2, “Immunotherapy with A*01 restricted peptides and combination of peptides against cancers and related methods” (Immatics Biotechnologies GmbH, priority 2018, dated 2025)
